Reference: patent publication US20180086841A1 (Merck Sharp & Dohme, published 2018)
Substitutions are numbered along the chain they refer to.

B1: hCD27.131A (mouse parental 131A) (antibody, mouse IgG1, V domains shown)
VH: QIQLVQSGPELKKPGETVKISCKASGYTFTNYGMNWVKQAPGKGLKWMGWINTNTGEPTYAEEFKGRFAFSLETSATTAYLQINNLKNEDTATYFCAREGDAMDYWGQGTSVTVSS
VL: QIVLTQSPAIMSASPGEKVTMTCSASSSVSYMHWYQQKSGTSPKRWIYDTSKLASGVPARFSGSGSGTSYSLTISSMEAEDAATYYCQQWNSYPFTFGSGTKLEIK
notes: Mouse IgG1 antibody; also called mouse hCD27.131A
B2: hCD27.15-6B (antibody, human IgG4 S228P, kappa, V domains shown)
VH: QVQLVQSGAEVKKPGASVKVSCKASGFIIKATYMHWVRQAPGQRLEWMGRIDPANGETKYDPKFQVRVTITADTSASTAYMELSSLRSEDTAVYYCARYAWYFDVWGQGTLVTVSS
VL: DIQMTQSPSSLSASVGDRVTITCRASENIYSFLAWYQQKPGKAPKLLIYHAKTLAEGVTSRFSGSGSGTDFTLTISSLQPEDSATYYCQHYYGSPLTFGQGTRLEIKR
notes: also called hCD27.15 (humanized 6B); humanized hCD27.15 (human IgG4, Clone 6B)

Columns and labels:
human CD27 [1] = target: T1, human CD27 (human, UniProt P26842 21-260); assay: flow cytometry MFI, CD8+ T cells of human PBMC, N=2 donors
T1 construct: also called hCD27; HsCD27
Method: (§1) Labeled cells were washed by re-suspending them in 150 ul of staining buffer (SB) followed by centrifugation at 300 g for 5 minutes. Cells were then resuspended in 100 ul of SB containing primary anti-CD27 antibodies at various concentrations, incubated in the dark at 4° C. for 30 minutes, followed by washing and centrifugation steps as previously described. […] Cells were incubated for 30 minutes at 4° C. in the dark, followed by washing and centrifugation steps. Next, cells were stained with a cocktail of phenotypic antibodies for surface markers (CD3, CD4, CD8, CD11b) and incubated for 30 minutes at 4° C. in the dark, followed by washing and centrifugation steps. […] Samples were acquired in a LSR-Fortessa flow cytometer (BD Biosciences) using the high throughput sampler and data analyzed by FlowJo software (Tree Star Inc).

H36A [2] = target: T2, H36A; assay: flow cytometry on CHO-K1 transfectants, right sub-column, cell hatched (loss of binding)
T2 construct: also called hCD27 H36A
T2 receptor chain: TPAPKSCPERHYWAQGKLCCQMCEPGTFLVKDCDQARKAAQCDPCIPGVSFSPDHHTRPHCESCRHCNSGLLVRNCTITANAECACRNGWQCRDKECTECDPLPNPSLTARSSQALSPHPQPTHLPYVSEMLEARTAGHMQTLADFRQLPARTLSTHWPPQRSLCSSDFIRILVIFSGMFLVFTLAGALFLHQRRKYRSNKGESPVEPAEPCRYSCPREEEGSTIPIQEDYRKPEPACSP
Method: (§2) The hCD27 variants that were tested are listed. Amino acids correspond to the UniProt P26842-1 sequence. Amino acids 1-20 constitute the signal peptide. Binding is expressed as the geometric mean of the FITC signal, relative to antibody binding to hCD27, which was set at 100%.
(§3) The ability of several anti-hCD27 antibodies to bind to a series of hCD27 alanine mutants was determined using CHO-K1 cells, transiently transfected pCI-neo empty vector, pCI-neo.hCD27 and several pCI-neo.CD27Ala mutant constructs.
(§4) Detached cells were transferred to 96 wells round-bottomed well plates at approximately 1.2×10⁵ cells/well. After spinning down the cells, discarding the supernatants and re-suspending the cells in the residual volume, the primary antibodies were added and incubated for 30 minutes at 4° C. Cells were washed three times with DPBS/BSA 1%, followed by centrifugation, discarding of the supernatants and re-suspension in the residual volume. […] After washing once, antibody binding was detected using the HTS plate reader (FACS Canto II) and FlowJo software for data analysis. Debris, dead cells and doublets were excluded from the analysis. Binding was expressed as the geometric mean of the FITC signal, relative to antibody binding to hCD27, which was set at 100%.

K38A [3] = target: T3, K38A; assay: as above
T3 construct: also called hCD27 K38A
T3 receptor chain: T2 receptor chain with A36H, K38A
Method: as §2, §3, §4

P8A [4] = target: T4, P8A; assay: as above
T4 construct: also called hCD27 P8A
T4 receptor chain: T2 receptor chain with P8A, A36H
Method: as §2, §3, §4

human CD27 [5] = target: T1, human CD27; assay: flow cytometry MFI, CD4+ T cells of human PBMC, N=2 donors
Method: as §1

H36A [6] = target: T2, H36A; assay: flow cytometry on CHO-K1 transfectants, left sub-column, cell hatched (loss of binding)
Method: as §3, §4

K38A [7] = target: T3, K38A; assay: as above
Method: as §3, §4

R37A = target: T5, R37A; assay: as above
T5 construct: also called hCD27 R37A
T5 receptor chain: T2 receptor chain with A36H, R37A
Method: as §3, §4

P8A [8] = target: T4, P8A; assay: as above
Method: as §3, §4

[9] = target: T6, Macaca mulatta CD27 (mmCD27) (Macaca mulatta (rhesus) / Macaca …, UniProt P26842 21-260 (human entry)); assay: cell ELISA on CHO-K1 transfectants (selection of the clone)
T6 construct: also called Rhesus CD27; rhesus monkey CD27
T6 chain: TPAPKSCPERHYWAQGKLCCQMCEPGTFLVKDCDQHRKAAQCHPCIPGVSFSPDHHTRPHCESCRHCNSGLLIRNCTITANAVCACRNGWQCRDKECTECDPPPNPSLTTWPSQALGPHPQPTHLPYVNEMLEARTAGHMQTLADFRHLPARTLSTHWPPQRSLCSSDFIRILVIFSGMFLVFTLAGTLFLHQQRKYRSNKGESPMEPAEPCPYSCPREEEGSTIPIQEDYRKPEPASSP
Method: (§5) On day eight, supernatants were screened by cell-ELISA for reactivity to hCD27 as described above. In addition, the hCD27-reactive supernatants were tested for binding to Macaca Mulatta CD27 (mmCD27) expressed on CHO-K1 cells. […] In the cell-ELISA, all incubation steps were followed by a wash step with PBST (PBS with 0.01% Tween 20). Parental CHO-K1, CHO-K1.hCD27, or CHO-K1.mmCD27 cells were seeded (40,000 cells/well) in tissue culture plates and incubated overnight at 37° C. The next day, culture medium was removed and cells were incubated for one hour with (dilutions of) B-cell supernatants at 37° C. […] Subsequently, cells were washed 6 times with PBST and anti-hCD27 immunoreactivity was visualized with 100 μl TMB Stabilized Chromagen (Invitrogen, cat. no. SB02). Reactions were stopped with 100 μl 0.5 M H₂SO₄ and absorbances were read at 460 and 620 nm.
(§6) Hybridoma supernatants were tested in Cell-ELISA experiments for binding to CHO-K1.mmCD27 or CHO-K1 cells expressing hCD27 (A59T), as described above. […] A serial dilution of the supernatants was added.

human CD27 (A59T) [10] = target: T7, human CD27 (A59T) (human, UniProt P26842 21-260); assay: as above
T7 construct: also called hCD27 (A59T); human CD27 variant p.Ala59Thr
Method: as §5, §6

human CD27 (A59T) [11] = target: T7, human CD27 (A59T); assay: flow cytometry on transiently transfected CHO-K1 cells

Binder	EC50 (human CD27 [1])	binding, WT hCD27 = 100 (GM FITC) (H36A [2])	binding, WT hCD27 = 100 (GM FITC) (K38A [3])	binding, WT hCD27 = 100 (GM FITC) (P8A [4])	EC50 (human CD27 [5])	binding, WT hCD27 = 100 (GM FITC) (H36A [6])	binding, WT hCD27 = 100 (GM FITC) (K38A [7])	binding, WT hCD27 = 100 (GM FITC) (R37A)	binding, WT hCD27 = 100 (GM FITC) (P8A [8])	binding result [9]	binding result (human CD27 (A59T) [10])	binding result (human CD27 (A59T) [11])
B1	0.0194 nM	10.8%	11.8%	15.9%	0.0645 nM	54.1%	48.2%	50.3%	44.9%	binds	binds	–
B2	–	–	–	–	–	–	–	–	–	–	–	no binding
